Measurements as given in patent US20190077860A1 (EISAI R AND D MANAGEMENT, published 2019).
Substitutions are numbered along the chain they refer to.

T1: human EphA3 extracellular region-SEAP-His protein (human, UniProt P29320 21-541)
T1 construct: extracellular domain; also called hEphA3-SEAP-His
T1 sequence (looked up): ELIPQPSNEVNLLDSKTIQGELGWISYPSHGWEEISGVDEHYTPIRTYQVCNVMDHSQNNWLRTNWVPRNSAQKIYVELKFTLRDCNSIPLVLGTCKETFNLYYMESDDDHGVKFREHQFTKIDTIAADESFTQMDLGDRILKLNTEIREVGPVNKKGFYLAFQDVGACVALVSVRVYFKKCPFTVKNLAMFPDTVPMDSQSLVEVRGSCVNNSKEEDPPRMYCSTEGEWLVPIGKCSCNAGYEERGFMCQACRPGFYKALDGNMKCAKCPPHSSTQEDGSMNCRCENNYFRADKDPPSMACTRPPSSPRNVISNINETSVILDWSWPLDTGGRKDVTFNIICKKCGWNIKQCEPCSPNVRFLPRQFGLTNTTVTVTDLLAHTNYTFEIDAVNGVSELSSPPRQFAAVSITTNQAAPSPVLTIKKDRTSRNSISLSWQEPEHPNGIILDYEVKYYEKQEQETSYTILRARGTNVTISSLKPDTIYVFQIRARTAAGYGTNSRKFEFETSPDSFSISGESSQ

T2: human EphA7 extracellular region-SEAP-His protein (human, UniProt Q15375 28-555)
T2 construct: extracellular domain; also called hEphA7-SEAP-His
T2 sequence (looked up): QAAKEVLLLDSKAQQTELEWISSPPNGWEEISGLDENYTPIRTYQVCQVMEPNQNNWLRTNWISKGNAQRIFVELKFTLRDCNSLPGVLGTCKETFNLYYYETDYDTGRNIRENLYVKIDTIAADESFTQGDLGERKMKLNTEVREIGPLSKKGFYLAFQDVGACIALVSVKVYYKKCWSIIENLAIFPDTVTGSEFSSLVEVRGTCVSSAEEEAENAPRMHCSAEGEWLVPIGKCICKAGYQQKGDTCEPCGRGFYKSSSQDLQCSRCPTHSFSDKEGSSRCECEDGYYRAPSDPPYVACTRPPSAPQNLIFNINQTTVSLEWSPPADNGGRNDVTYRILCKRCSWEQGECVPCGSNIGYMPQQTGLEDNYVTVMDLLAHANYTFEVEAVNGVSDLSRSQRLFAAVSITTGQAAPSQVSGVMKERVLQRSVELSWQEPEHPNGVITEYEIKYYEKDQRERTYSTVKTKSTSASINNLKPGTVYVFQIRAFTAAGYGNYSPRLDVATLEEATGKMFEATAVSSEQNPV

T3: human EphB3 extracellular region-SEAP-His protein (human, UniProt P54753 34-559)
T3 construct: extracellular domain; also called hEphB3-SEAP-His
T3 sequence (looked up): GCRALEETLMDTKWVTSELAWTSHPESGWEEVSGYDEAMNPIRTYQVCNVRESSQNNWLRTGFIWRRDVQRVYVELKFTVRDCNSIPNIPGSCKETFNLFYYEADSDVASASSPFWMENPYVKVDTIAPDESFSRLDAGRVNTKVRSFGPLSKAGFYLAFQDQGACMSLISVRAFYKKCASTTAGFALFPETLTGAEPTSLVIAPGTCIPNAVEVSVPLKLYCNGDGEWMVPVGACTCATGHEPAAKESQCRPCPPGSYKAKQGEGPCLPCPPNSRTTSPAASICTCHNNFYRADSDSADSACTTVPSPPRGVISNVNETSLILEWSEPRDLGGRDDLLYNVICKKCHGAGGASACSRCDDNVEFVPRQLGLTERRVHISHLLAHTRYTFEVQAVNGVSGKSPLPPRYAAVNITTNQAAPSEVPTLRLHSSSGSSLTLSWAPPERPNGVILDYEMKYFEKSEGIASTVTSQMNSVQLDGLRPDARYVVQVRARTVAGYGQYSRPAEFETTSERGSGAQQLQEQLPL

T4: human EphB4 extracellular region-SEAP-His protein (human, UniProt P54760 16-539)
T4 construct: extracellular domain; also called hEphB4-SEAP-His
T4 sequence (looked up): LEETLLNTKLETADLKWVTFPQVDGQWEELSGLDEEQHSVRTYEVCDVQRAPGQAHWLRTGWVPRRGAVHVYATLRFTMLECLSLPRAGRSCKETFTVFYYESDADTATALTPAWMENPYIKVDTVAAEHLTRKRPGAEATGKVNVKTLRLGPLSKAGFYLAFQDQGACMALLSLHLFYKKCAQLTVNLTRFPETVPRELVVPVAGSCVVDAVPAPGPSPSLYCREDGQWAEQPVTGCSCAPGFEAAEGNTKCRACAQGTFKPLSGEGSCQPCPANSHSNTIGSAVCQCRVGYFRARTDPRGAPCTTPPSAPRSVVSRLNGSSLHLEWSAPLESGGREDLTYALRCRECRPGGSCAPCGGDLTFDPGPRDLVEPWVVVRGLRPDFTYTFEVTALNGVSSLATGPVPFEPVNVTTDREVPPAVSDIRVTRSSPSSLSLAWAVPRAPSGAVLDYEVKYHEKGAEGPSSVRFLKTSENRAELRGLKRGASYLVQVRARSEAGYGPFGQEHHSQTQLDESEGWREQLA

B1: humanized antibody No. 154 (antibody, human IgG2)
heavy: QVQLVQSGSELKKPGASVKVSCKASGYTFTDYSMHWVRQAPGQGLEWMGWINTETGEPTYADDFKGRFVFSLDTSVSTAYLQISSLKAEDTAVYYCARIPLYYYGSRYWYFDVWGQGTTVTVSSASTKGPSVFPLAPSSRSTSESTAALGCLVKDYFPEPVTVSWNSGALTSGVHTFPAVLQSSGLYSLSSVVTVPSSNFGTQTYTCNVDHKPSNTKVDKTVERKSCVECPPCPAPPAAAPSVFLFPPKPKDTLMISRTPEVTCVVVDVSHEDPEVQFNWYVDGVEVHNAKTKPREEQFNSTFRVVSVLTVVHQDWLNGKEYKCKVSNKGLPAPIEKTISKTKGQPREPQVYTLPPSREEMTKNQVSLTCLVKGFYPSDIAVEWESNGQPENNYKTTPPMLDSDGSFFLYSKLTVDKSRWQQGNVFSCSVMHEALHNHYTQKSLSLSPG
light: DIQMTQSPSSLSASVGDRVTITCRASENIYRNLAWYQQKPGKAPKLLLYAATNLADGVPSRFSGSGSGTDYTLTISSLQSEDFATYYCQHFWGTPWTFGQGTKVEIKRTVAAPSVFIFPPSDEQLKSGTASVVCLLNNFYPREAKVQWKVDNALQSGNSQESVTEQDSKDSTYSLSSTLTLSKADYEKHKVYACEVTHQGLSSPVTKSFNRGEC
notes: human Ig kappa; also called L1-5/HK1
B2: humanized antibody No. 134 (antibody, human IgG2)
heavy: B1 heavy with E46K, D62Q, D63G, K65T
light: EIVMTQSPATLSVSPGERATLSCRASENIYRNLAWYQQKPGQSPRLLIYAATNLADGIPARFSGSGSGTEYTLTISSLQSEDFAVYYCQHFWGTPWTFGQGTKVEIKRTVAAPSVFIFPPSDEQLKSGTASVVCLLNNFYPREAKVQWKVDNALQSGNSQESVTEQDSKDSTYSLSSTLTLSKADYEKHKVYACEVTHQGLSSPVTKSFNRGEC
notes: human Ig kappa; also called L2-4/HA2
B3: humanized antibody No. 159 (antibody, human IgG2)
heavy: B1 heavy with E46K
light: B1 light with K45Q, S80P
notes: human Ig kappa; also called L1-6/HK2
B4: humanized antibody No. 160 (antibody, human IgG2)
heavy: B1 heavy with V2I, E46K
light: B1 light with K45Q, S80P
notes: human Ig kappa; also called L1-6/HK4
B5: humanized antibody No. 132 (antibody, human IgG2)
heavy: B1 heavy with V2I, E46K, D62Q, D63G, K65T
light: B2 light
notes: human Ig kappa; also called L2-4/HA4
B6: humanized antibody No. 135 (antibody, human IgG2)
heavy: B1 heavy
light: B2 light
notes: human Ig kappa; also called L2-4/HK1
B7: humanized antibody No. 157 (antibody, human IgG2)
heavy: B1 heavy with D62Q, D63G, K65T
light: B1 light with K45Q, S80P
notes: human Ig kappa; also called L1-6/HA1
B8: humanized antibody No. 155 (antibody, human IgG2)
heavy: B1 heavy with V2I, E46K
light: B1 light
notes: human Ig kappa; also called L1-5/HK4
B9: humanized antibody No. 158 (antibody, human IgG2)
heavy: B1 heavy with E46K, D62Q, D63G, K65T
light: B1 light with K45Q, S80P
notes: human Ig kappa; also called L1-6/HA2
B10: humanized antibody No. 133 (antibody, human IgG2)
heavy: B1 heavy with D62Q, D63G, K65T
light: B2 light
notes: human Ig kappa; also called L2-4/HA1
B11: humanized antibody No. 136 (antibody, human IgG2)
heavy: B1 heavy with E46K
light: B2 light
notes: human Ig kappa; also called L2-4/HK2
B12: humanized antibody No. 156 (antibody, human IgG2)
heavy: B1 heavy with V2I, E46K, D62Q, D63G, K65T
light: B1 light with K45Q, S80P
notes: human Ig kappa; also called L1-6/HA4

Legend:
Test in all cases: ELISA
[1] = molecular target: T1, human EphA3 extracellular …
[2] = molecular target: T5, human EphA5 extracellular region-SEAP-His protein (human, UniProt P54756 25-573)
T5 construct: extracellular domain; also called hEphA5-SEAP-His

[3] = molecular target: T2, human EphA7 extracellular …
[4] = molecular target: T3, human EphB3 extracellular …
[5] = molecular target: T4, human EphB4 extracellular …

T5 sequence (P54756 25-573): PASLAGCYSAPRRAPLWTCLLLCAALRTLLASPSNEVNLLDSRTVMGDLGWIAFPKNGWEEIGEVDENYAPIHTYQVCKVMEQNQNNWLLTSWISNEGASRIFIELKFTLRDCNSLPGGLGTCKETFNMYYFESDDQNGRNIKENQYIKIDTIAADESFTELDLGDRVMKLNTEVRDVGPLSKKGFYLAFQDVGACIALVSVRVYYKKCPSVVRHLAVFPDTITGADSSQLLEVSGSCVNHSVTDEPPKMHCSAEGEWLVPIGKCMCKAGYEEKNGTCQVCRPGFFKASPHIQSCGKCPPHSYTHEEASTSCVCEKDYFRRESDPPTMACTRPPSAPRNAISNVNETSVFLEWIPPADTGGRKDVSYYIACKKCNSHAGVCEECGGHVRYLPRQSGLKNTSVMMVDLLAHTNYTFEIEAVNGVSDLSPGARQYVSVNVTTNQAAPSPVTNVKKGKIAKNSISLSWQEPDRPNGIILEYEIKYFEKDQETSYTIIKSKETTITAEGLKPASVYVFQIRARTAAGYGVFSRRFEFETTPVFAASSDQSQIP

| Binder | A450 as % of hEphA4-SEAP-His [1] | A450 as % of hEphA4-SEAP-His [2] | A450 as % of hEphA4-SEAP-His [3] | A450 as % of hEphA4-SEAP-His [4] | A450 as % of hEphA4-SEAP-His [5] |
| --- | --- | --- | --- | --- | --- |
| B1 | 6.2% | 6.3% | 6.3% | 6.2% | 6.4% |
| B2 | 5% | 5.2% | 5.1% | 5.2% | 5.1% |
| B3 | 5.4% | 5.5% | 5.5% | 5.5% | 5.4% |
| B4 | 6.2% | 6.5% | 6.1% | 6.2% | 6.3% |
| B5 | 4.8% | 4.7% | 4.5% | 4.7% | 4.8% |
| B6 | 5% | 5% | 5.2% | 5% | 5.1% |
| B7 | 6.4% | 6.1% | 6% | 6.4% | 6.5% |
| B8 | 5.6% | 5.6% | 5.6% | 5.5% | 5.7% |
| B9 | 6.5% | 6.7% | 6.3% | 6.5% | 6.5% |
| B10 | 5% | 4.7% | 4.6% | 4.7% | 4.9% |
| B11 | 5.2% | 5.2% | 5.4% | 5.5% | 5.2% |
| B12 | 5.7% | 5.7% | 5.6% | 5.6% | 5.6% |
